Values belong to the binder of their own block, whether it stands above or below them.
Key:
[1] = target: T1, rHuman EGF R/Fc Chimera, CF (R&D Systems Cat#344-ER) (human, UniProt P00533 25-645); assay: MSD Multispot ECL, antigen spotted on plate, Fab 32.5 nM; blank spot 473
T1 construct: Bought reagent; also called epidermal growth factor receptor; Fc part of the bought chimera not given

[2] = target: T2, rHuman IGF-1 sR, (IGF-1 sR), CF (R&D Systems Cat#391-GR) (human, UniProt P08069 31-932); assay: as above
T2 construct: Bought soluble receptor; also called insulin-like growth factor-1 soluble receptor

[3] = target: T3, rHuman ErbB2/Fc Chimera, CF (R&D Systems Cat#1129-ER) (human, UniProt P04626 23-652); assay: as above
T3 construct: Bought reagent; also called human epidermal growth factor 2 receptor; Fc part of the bought chimera not given

[4] = target: T4, rHuman HGF R/c-MET/Fc Chimera, CF (R&D Systems Cat#358-MT/CF) (human, UniProt P08581 25-932); assay: as above
T4 construct: Bought reagent; also called HGF R/Fc; hepatocyte growth factor receptor; Fc part of the bought chimera not given

[5] = target: T5, rHuman CD44/Fc Chimera, CF (R&D Systems Cat#3660-CD) (human, UniProt P16070 21-220); assay: as above
T5 construct: Bought reagent; Fc part of the bought chimera not given

[6] = target: T6, rHuman Notch-1/Fc Chimera, CF (R&D Systems Cat#3647-TK) (human, UniProt P46531 19-526); assay: as above
T6 construct: Bought reagent; Fc part of the bought chimera not given

[7] = target: T7, rHuman Erythropoietin R/Fc Chimera, CF (R&D Systems Cat#963-ER) (human, UniProt P19235 25-250); assay: as above
T7 construct: Bought reagent; also called EPO R/Fc; EPO R; Fc part of the bought chimera not given
T7 sequence (looked up): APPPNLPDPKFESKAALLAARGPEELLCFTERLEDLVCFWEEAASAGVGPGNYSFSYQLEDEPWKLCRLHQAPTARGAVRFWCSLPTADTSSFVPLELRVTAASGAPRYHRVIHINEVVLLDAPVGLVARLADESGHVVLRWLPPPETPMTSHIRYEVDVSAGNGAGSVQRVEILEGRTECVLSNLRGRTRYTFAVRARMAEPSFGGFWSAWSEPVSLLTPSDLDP

[8] = target: T8, Recombinant Human DLL4 (R&D Systems Cat#1506-D4/CF) (human, UniProt Q9NR61 27-529); assay: as above
T8 construct: Bought recombinant protein; also called rHuman DLL4; delta-like protein 4

[9] = target: T9, rHuman P-Cadherin/Fc Chimera, CF (R&D Systems Cat#861-PC) (human, UniProt P22223 108-654); assay: MSD multispot ECL, antigen spotted on plate, Fab 705 nM; blank spot 483
T9 construct: Bought from R&D Systems; not shown: Fc of the bought chimera

[10] = target: T10, rHuman ErbB2/Fc Chimera, CF (R&D Systems Cat#1129-ER) (human, UniProt P04626 23-652); assay: MSD multispot ECL, antigen spotted, Fab 595.8 nM; blank spot 285
T10 construct: Bought reagent; also called human epidermal growth factor 2 receptor

[11] = target: T11, Recombinant Human DLL4 (R&D Systems Cat#1506-D4/CF) (human, UniProt Q9NR61 27-524); assay: as above
T11 construct: Bought recombinant protein; also called rHuman DLL4; delta-like protein 4

[12] = target: T12, rHuman HGF R/c-MET/Fc Chimera, CF (R&D Systems Cat#358-MT/CF) (human, UniProt P08581 25-932); assay: as above
T12 construct: Bought reagent; also called HGF R/Fc; hepatocyte growth factor receptor

[13] = target: T13, rHuman IGF-1 sR, (IGF-1 sR), CF (R&D Systems Cat#391-GR) (human, UniProt P08069 31-932); assay: MSD multispot ECL, antigen spotted, Fab 2383 nM; blank spot 344
T13 construct: Bought soluble receptor; also called insulin-like growth factor-1 soluble receptor

[14] = target: T10, rHuman ErbB2/Fc Chimera, CF (R&D …); assay: as above
[15] = target: T11, Recombinant Human DLL4 (R&D Systems …); assay: as above
[16] = target: T14, rHuman EGF R/Fc Chimera, CF (R&D Systems Cat#344-ER) (human, UniProt P00533 25-645); assay: as above
T14 construct: Bought reagent; also called epidermal growth factor receptor

[17] = target: T12, rHuman HGF R/c-MET/Fc Chimera, CF (R&D …); assay: as above
[18] = target: T15, rHuman Erythropoietin R/Fc Chimera, CF (R&D Systems Cat#963-ER) (human, UniProt P19235 25-250); assay: as above
T15 construct: Bought reagent; also called EPO R/Fc; Epo R
T15 sequence (looked up): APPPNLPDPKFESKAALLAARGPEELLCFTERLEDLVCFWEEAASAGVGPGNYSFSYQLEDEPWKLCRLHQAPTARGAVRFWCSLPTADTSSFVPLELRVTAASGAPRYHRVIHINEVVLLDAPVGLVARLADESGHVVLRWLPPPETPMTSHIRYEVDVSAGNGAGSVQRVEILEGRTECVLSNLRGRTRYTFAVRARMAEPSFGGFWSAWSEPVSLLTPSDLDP

[19] = target: T16, rHuman Notch-1/Fc Chimera, CF (R&D Systems Cat#3647-TK) (human, UniProt P46531 19-526); assay: as above
T16 construct: Bought reagent

[20] = target: T17, rHuman CD44/Fc Chimera, CF (R&D Systems Cat#3660-CD) (human, UniProt P16070 21-220); assay: as above
T17 construct: Bought reagent

- ECL signal [1]: 645
- ECL signal [2]: 561
- ECL signal [3]: 556
- ECL signal [4]: 525
- ECL signal [5]: 573
- ECL signal [6]: 706
- ECL signal [7]: 673
- ECL signal [8]: 2990
B1: Fab VH1-8_IGHD2-2*01_IGHJ6*01 & L12_IGKJ1*01 (Fab, V domains shown)
VH: QVQLVQSGAEVKKPGASVKVSCKASGYTFTSYDINWVRQATGQGLEWMGWMNPNSGNTGYAQKFQGRVTMTRNTSISTAYMELSSLRSEDTAVYYCARGGYCSSTSCYADYYYYYGMDVWGQGTTVTVSS
VL: not shown

- ECL signal [9]: 827
B2: Fab VH1-46_IGHD3-10*01_IGHJ4*01 & B3_IGKJ1*01 (Fab, V domains shown)
VH: QVQLVQSGAEVKKPGASVKVSCKASGYTFTSYYMHWVRQAPGQGLEWMGIINPSGGSTSYAQKFQGRVTMTRDTSTSTVYMELSSLRSEDTAVYYCAREYYYGSGSYYNDYFDYWGQGTLVTVSS
VL: not shown
notes: Tested as a Fab made in E. coli; VH was cloned into Plasmid A (CH1 constant region, His6 and Flag tags); The kappa VL was cloned into Plasmid C (kappa CL)

- ECL signal [10]: 321 ECL signal
- ECL signal [11]: 17200 ECL signal
- ECL signal [12]: 353 ECL signal
- ECL signal [13]: 527 ECL signal
- ECL signal [14]: 454 ECL signal
- ECL signal [15]: 11800 ECL signal
- ECL signal [16]: 621 ECL signal
- ECL signal [17]: 762 ECL signal
- ECL signal [18]: 658 ECL signal
- ECL signal [19]: 690 ECL signal
- ECL signal [20]: 559 ECL signal
B3: Fab VH1-46_IGHD6-6*01_IGHJ1*01 & L6_IGKJ1*01 (Fab, V domains shown)
VH: QVQLVQSGAEVKKPGASVKVSCKASGYTFTSYYMHWVRQAPGQGLEWMGIINPSGGSTSYAQKFQGRVTMTRDTSTSTVYMELSSLRSEDTAVYYCAREEYSSSSAEYFQHWGQGTLVTVSS
VL: not shown
notes: Only variable domains are tied to the molecule; Tested as a Fab made in E. coli: heavy chain from Plasmid A (CH1 constant region, His6 and Flag tags), kappa light chain from Plasmid C (kappa CL); also called parent Hit Fab against DLL4; VH1-46_IGHD6-6*01_IGHJ1*01 & L6_IGKJ1*01 (parental)
